Test results reported in patent publication US20220275047A1 (published 2022).

Target: T1, MUC5AC peptide on HLA-DPA1*01:03 / HLA-DPB1*04:01 (human)
T1 peptide: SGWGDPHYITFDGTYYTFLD
Experiment: multimer staining

B1: 05-MUC5AC4922-4941 (TCR, V domains shown)
Valpha: QTVTQSQPEMSVQEAETVTLSCTYDTSESNYYLFWYKQPPSRQMILVIRQEAYKQQNATENRFSVNFQKAAKSFSLKISDSQLGDTAMYFCAFMKRAETSGSRLTFGEGTQLTVNP
Vbeta: NAGVTQTPKFRVLKTGQSMTLLCAQDMNHEYMYWYRQDPGMGLRLIHYSVGEGTTAKGEVPDGYNVSRLKKQNFLLGLESAAPSQTSVYFCASSYWPTRETQYFGPGTRLLVL
binding result: recognises
